From the RNAGym collection of RNA variant scans (doi:10.7554/elife.90254)

B1: LINE1-full (parent)
chain: UACGUAGGUGGUUUUCCCCUGAUAGUGCUAAGGGGGCCUGGAAGUUUGGACUGGGCAGAGCUCAACACAGCGUGGCAAAGUGGCUGUGGCUAGACUGCCUCUCUGGAUUCCUCGUCACUCAGCAGGGCAUCUCUGAGAGAAAUGCC

Variants of: B1
Test: self-cleavage, relative activity (ratio to wild type); higher = more cleavage; in vitro, sequencing; the parent is a self-cleaving ribozyme

First: UACGUAGGUGGUUUUCCCCUGAUAGUGCUAAGGGGGCCUGGAAGUUUGGACUGGGCAGAGCUCAACACAGCGCGGCAAAGUGGCUGUGGCUAGACUGCCUCUCUGGAUUCCGCGUCACUCAGCAGGGCAUCUCUGAGAGAAAUGCC [U73C U112G]
Second: UACGUAGGUGGUUUUCCCCUGAUAGUGCUAAGGGGGCCUGGAAGUUUGGACAGGGCAGAGCUCAACACAGCGUGGCAAAGUGGCUGUGGCUAGACUGCCUCUCUGGAUUACUCGUCACUCAGCAGGGCAUCUCUGAGAGAAAUGCC [U52A C110A]
The self-cleavage of the first is higher: 2.63 for the first, 1.66 for the second.

First: UACGUAGGUGGUUUUCCCCUGAUAGUGCUGAGGGGGCCUGGAAGUUUGGACUGGGCAGAGCUCAACACAGCGUGGCAAAGUGGCUGUGGCUAGACUGCCUCUCUGGAUUCCUCGUCACUCAGCAGUGCAUCUCUGAGAGAAAUGCC [A30G G126U]
Second: UACGUAGGUGGUUUUCCCCUGAUAGUGCUAAGGGGGCCUGGAAGUUUGGACUGGGCAGAGCUCAACACAGCGUGGCAAAGUGGCUGUGGCUAGAAUGCCUCUCUGGAUUCCUCGUCACUCUGCAGGGCAUCUCUGAGAGAAAUGCC [C95A A121U]
The self-cleavage of the first is higher: 0.96 for the first, 0.05 for the second.

First: UACGUAGGUGGUUUUCCCCUGAUAGUGCUAAGGGGGCCUGGAAGUUUGGACUGAGCAGAGCUCAACACAGCGUGGCAAAGUGGCUGUGGCUAGACUGCCUCUCUGGAUUCCUCGUCACUCCGCAGGGCAUCUCUGAGAGAAAUGCC [G54A A121C]
Second: UACGUAGGUGGUUUUCCCCGGAUAGUGCUAAGGGGGCCUGGAAGUUUGGACUGGGCAGAGCUCAACACAGCGUGGCAAAGUGGCUGUGGCUAGACUGCCUCUCUGGAUUCCUCGUCACUCAGCAGGGCAUCUCUGAGAGUAAUGCC [U20G A140U]
The self-cleavage of the first is lower: 1.05 for the first, 1.23 for the second.

Going from UACGUAGGUGGUUUUCCCCUGAUAGUGCUAAGGGGGCCUGGAAGUUUGGACUGGGCAGAGCUCAACACAGCGUGGCAAAGUGGCAGUGGCUAGACGGCCUCUCUGGAUUCCUCGUCACUCAGCAGGGCAUCUCUGAGAGAAAUGCC [U85A U96G] to UACGUAGGUGGUUUUCCCCUGAUAGUGCUAAGGGGGCCUGGAAGUUUGGACUGGGCAGAGCUCAACACAGCGUGGCAACGUGGCUGUGGCUAGACUGCCUCUCUGGACUCCUCGUCACUCAGCAGGGCAUCUCUGAGAGAAAUGCC [A79C U108C], the self-cleavage rises from 0.15 to 2.12.

Going from UACGUAGGUGGUUUUCCCCUGAUAGUGCUAAGGGGGCCUGGAAGGUUGGACUGGGCUGAGCUCAACACAGCGUGGCAAAGUGGCUGUGGCUAGACUGCCUCUCUGGAUUCCUCGUCACUCAGCAGGGCAUCUCUGAGAGAAAUGCC [U45G A57U] to UACGUAGGUGGUUUUCCCCUGAUAGUGCUAAGGGGGCCUGGAAGUUUGGACUGGGCAGAGCUCAACACAGCGUGGCAAAGUGGCUGUGGCUAGACUGCAUCUCUGGAUCCCUCGUCACUCAGCAGGGCAUCUCUGAGAGAAAUGCC [C99A U109C], the self-cleavage rises from 0.18 to 0.41.

First: UACGUAGGUGGUUUUCCCCUGAUAGUGCUAAGGGGGCCUGGAAGUUUGGACUGGGCAGAGCUCAACACAGCGUGGCAAAGUGGCUGGGGCUAGACUGCCUCUCUGGAUUCCUCGUCACUCAGCAGGGCAUCUCUGAGAGUAAUGCC [U87G A140U]
Second: UACGUAGGUGGUUUUCCCCUGAUAGUGCUAAGGGGGCCUGGAAGUUUGGACUGGGCAGAGCUCAACACAGCGUAGCAAAGUGGCUGUGGCUAGACUGCCUCUCUGGAUUCCUCGUCACUCAGCAGGGCAUCUCUGAGAGAGAUGCC [G74A A141G]
The self-cleavage of the first is lower: 0.13 for the first, 0.97 for the second.

First: UACGUAGGAGGUUUUCCCCUGAUAGUGCUAAGGGGGCCUGGAAGUUUGGACUGGGCAGAGCUCAACACAGCGUGGCUAAGUGGCUGUGGCUAGACUGCCUCUCUGGAUUCCUCGUCACUCAGCAGGGCAUCUCUGAGAGAAAUGCC [U9A A77U]
Second: UACGUAGGUGGUUUUCCCCUGAUAGUGCUCAGGGGGCCUGGAAGUUUGGACUGGGCAGAGCUCAACACAGCGUGGCAAAGUGGCUGUGGCUAGACUGCCUCUCUGGAUUCCUUGUCACUCAGCAGGGCAUCUCUGAGAGAAAUGCC [A30C C113U]
The self-cleavage of the first is lower: 0.85 for the first, 1.32 for the second.

Compared with UACGCAGGUGGUUUUCCCCUGAUAGUGCUAAGGGGGCCUGGAAGUUUGGACUGGGCAGAGCUCAACACAGCGUGGCAAAGUGGCUGUGGCUAGACUGCCUCUCUGGAUUCCUCGUCACUCAGCAGGGCAUCUCUGAGGGAAAUGCC [U5C A138G], UACGUAGGUGGUUUUCCCCUGAUAGUGCUAAGGGGGCCUGGAAGUUUGGACUGGGCAGAGCUCAACACAGCGUGGCAAAGUGGCUGUGGCUAGACUGCCUCUCUGGAUUCCUCGUCACUCAGCAGGGCUUCUCUGAGGGAAAUGCC [A129U A138G] is lower in self-cleavage: 1.18 for the first, 0.93 for the second.

Compared with UACGUAGGUGGUUUUCCCCUGAUAGUGCUAAGGGGGCCUGGAAGUUUGGACUGGGCAGAGCUCAACACAGCGUGGCAAAGUGGCUGUAGCUAGACUGCCUCUCUGGAUUCCUCGCCACUCAGCAGGGCAUCUCUGAGAGAAAUGCC [G88A U115C], UACGUAGGUGGUUUUCCCCUGAUAGUGCUAAUGGGGCCUGGAAGUUUGGACUGGGCAGAGCUCAACUCAGCGUGGCAAAGUGGCUGUGGCUAGACUGCCUCUCUGGAUUCCUCGUCACUCAGCAGGGCAUCUCUGAGAGAAAUGCC [G32U A67U] is higher in self-cleavage: 0.06 for the first, 0.13 for the second.

Going from UGCGUAGGUGGUUUUCCCCUGAUAGUGCUAAGGGGACCUGGAAGUUUGGACUGGGCAGAGCUCAACACAGCGUGGCAAAGUGGCUGUGGCUAGACUGCCUCUCUGGAUUCCUCGUCACUCAGCAGGGCAUCUCUGAGAGAAAUGCC [A2G G36A] to UACGUAGGUGGUUUUCCCCUGAUAGUGCUAAGGGGGCCUGGAAGUUUGGACUGGGCAGAGCUCAACACAGCGUGGCAAAGUGGCUGUGGCUAGACUGCCUCUCUGGGUUCCUCGUCACUCAGCAGGGCAUCUCUGAGAUAAAUGCC [A107G G139U], the self-cleavage rises from 0.7 to 2.42.
